From doi:10.1101/2022.03.21.484600 (bioRxiv, 2022) come the findings set out here.

Data set [1] concerns the molecule itself. Briefly: pelleting by centrifugation + negative staining TEM.
Data set [2] concerns the molecule itself. Briefly: pelleting assay.
Data set [3] deals with the molecule itself. Briefly: circular dichroism of fibrils collected by centrifugation.
Data set [4] concerns the molecule itself. Nature of the data set: fibril formation seen by negative staining TEM.
Data set [5] deals with the molecule itself. Briefly: SEC. (SEC sorts molecules by how far they enter the pores of the column.)

Take AREAEAAIYRLQLFEELRRLA [PKM2 amyloid core centre peptide H391R (amino acids 382-402)]: in data set [1], the binding result is given as “binds”.

B1: Purified full-length PKM2 H391R (enzyme)
chain: not shown
For B1, the binding result in data set [2] is listed as “binds”.
Consider TSTTATVAASAVAAVFA [Cdc19 amyloid core peptide, E380A E392A], for which the binding result in data set [3] is listed as “binds”.
As to TSTTQTVAASAVAAVFQ [Cdc19 amyloid core peptide, E380Q E392Q], the binding result in data set [4] is listed as “binds”.
Consider AREAEAAIYHLQLFEELRRLA [PKM2 amyloid core centre peptide, wild type (amino acids 382-402)], for which the binding result in data set [1] is on record as “binds”.
With TSTTETVAASAVAAVFE [Cdc19 amyloid core peptide, wild type (amino acids 376-392)], in data set [3], the binding result is on record as “binds”.

B2: Purified full-length Cdc19, wild type (enzyme)
chain: MSRLERLTSLNVVAGSDLRRTSIIGTIGPKTNNPETLVALRKAGLNIVRMNFSHGSYEYHKSVIDNARKSEELYPGRPLAIALDTKGPEIRTGTTTNDVDYPIPPNHEMIFTTDDKYAKACDDKIMYVDYKNITKVISAGRIIYVDDGVLSFQVLEVVDDKTLKVKALNAGKICSHKGVNLPGTDVDLPALSEKDKEDLRFGVKNGVHMVFASFIRTANDVLTIREVLGEQGKDVKIIVKIENQQGVNNFDEILKVTDGVMVARGDLGIEIPAPEVLAVQKKLIAKSNLAGKPVICATQMLESMTYNPRPTRAEVSDVGNAILDGADCVMLSGETAKGNYPINAVTTMAETAVIAEQAIAYLPNYDDMRNCTPKPTSTTETVAASAVAAVFEQKAKAIIVLSTSGTTPRLVSKYRPNCPIILVTRCPRAARFSHLYRGVFPFVFEKEPVSDWTDDVEARINFGIEKAKEFGILKKGDTYVSIQGFKAGAGHSNTLQVSTV
B2: the “stoichiometry N” value in data set [5] amounted to 4.

One may read the stoichiometry N as the number of molecules, sites or subunits per partner or assembly.
